Reference: patent US20020045591A1, “Methods and therapeutic compositions for treating cancer” (priority 1998, published 2002)

Test system: β-catenin-mediated transactivation
Test: TOPFLASH/FOPFLASH luciferase transactivation in CHO cells
Assay type: cell-based
Conditions: TOPFLASH, FIG. 5A lanes 7-9
Description: Cell culture and transfections: CHO and SW480 human colon carcinoma cells were cultured in Dulbecco's modified Eagle's medium containing 10% fetal calf serum in an 8% CO2 incubator at 37° C. Transfections were performed using Lipofectamine (Gibco, BRL, USA) according to the manufacturer's instructions. Stably transfected CHO clones were generated by co-transfection with a plasmid encoding the puromycin resistance gene. Two days after transfection, cells were replated in the presence of 10 μg/ml puromycin (Sigma, Holon, Israel). Stable clones were isolated 2 weeks later and tested for the expression of the transgene by Western blot analysis.
Transactivation assays: CHO cells were transfected with TOPFLASH or FOPFLASH vectors (van de Wetering et al., 1997, ibid) and with pCDNA3 coding for β-galactosidase to normalize for transfection efficiency. The transfection mixture also contained either β-catenin, LEF-1 or cadherin derivatives in different combinations, as indicated. SW480 cells were transfected with TOPFLASH and cadherin derivatives. […] The reactions were stopped with 1 M Na2CO3 and the absorbance at 420 nm was determined. […] The luciferase reaction was monitored by a TD-20e luminometer (Turner, USA) and normalized for the β-galactosidase activity. […]

B1: N-cadherin tail: Cytoplasmic domain of chicken N-cadherin tagged with a Flag epitope (protein)
chain: MKRRDKERQAKQLLIDPEDDVRDNILKYDEEGGGEEDQDYDLSQLQQPDTVEPDAIKPVGIRRLDERPIHAEPQYPVRSAAPHPGDIGDFINEGLKAADNDPTAPPYDSLLVFDYEGSGSTAGSLSSLNSSSSGGEQDYDYLNDWGPRFKKLADMYGGGDD
modifications: left off: small tags and cut ends
luciferase activity (LEF-1 transactivation) after transfection with LEF-1 and cadherin derivative: no specific transactivation was detected
